Data taken from patent US20010046665A1, “Method of identifying the function of a test agent” (priority 2000, published 2001).

Tests used:
Type in all cases: cell-based
Set-up in all cases: key: *: up in IL-1α treatment; **: up in OPG treatment, down in thrombopoietin treatment; ***: up in IFNγ treatment; ****: up in IL-6 treatment
MG-63, Osteosarcoma = assay: GeneCalling confirmation of gene expression changes in MG-63 cells; details: confirmed by GeneCalling; for Collagen gene expression change: up with OPG, down with thrombopoietin
TF-1, Erythroleukemia = assay: GeneCalling confirmation of gene expression changes in TF-1 cells; details: confirmed by GeneCalling
U-87MG, Astrocytoma = assay: GeneCalling confirmation of gene expression changes in U-87MG cells; details: confirmed by GeneCalling

Q: With “thrombopoietin: known protein used to treat the indicated cell lines in GeneCalling confirmation” as the molecule, how does the “Collagen gene expression change” value (MG-63, Osteosarcoma) read?
A: Its value is “Collagen**”.

Q: Which “ICAM-1 gene expression change” value (TF-1, Erythroleukemia) does the source give for “IL-6: known protein used to treat the indicated cell lines in GeneCalling confirmation” here?
A: Its value is “ICAM-1****”.

B1: IFNγ: known protein used to treat the indicated cell lines in GeneCalling confirmation (protein, UniProt P01579 24-161, looked up)
Interferon gamma: QDPYVKEAENLKKYFNAGHSDVADNGTLFLGILKNWKEESDRKIMQSQIVSFYFKLFKNFKDDQSIQKSVETIKEDMNVKFFNSNKKKRDDFEKLTNYSVTDLNVQRKAIHELIQVMAELSPAAKTGKRKRSQMLFRG
Q: What does the source list for B1?
A: IRF-1 gene expression change (TF-1, Erythroleukemia): IRF-1***; IRF-1 gene expression change (U-87MG, Astrocytoma): IRF-1***

B2: IL-1α: known protein used to treat the indicated cell lines in GeneCalling confirmation (protein, UniProt P01583 113-271, looked up)
Interleukin-1 alpha: SAPFSFLSNVKYNFMRIIKYEFILNDALNQSIIRANDQYLTAAALHNLDEAVKFDMGAYKSSKDDAKITVILRISKTQLYVTAQDEDQPVLLKEMPEIPKTITGSETNLLFFWETHGTKNYFTSVAHPNLFIATKQDYWVCLAGGPPSITDFQILENQA
Q: Which “Factor B gene expression change” value (MG-63, Osteosarcoma) does the source give for B2 here?
A: The value was “Factor B*”.

Q: What about the “IL-8 gene expression change” value (MG-63, Osteosarcoma) of the same molecule?
A: Its value is “IL-8*”.

Q: What about the “IRF-1 gene expression change” value (MG-63, Osteosarcoma) of the same molecule?
A: The value was “IRF-1*”.

Q: What about the “LOX gene expression change” value (MG-63, Osteosarcoma) of the same molecule?
A: Its value is “LOX*”.

Q: And the “MxA gene expression change” value (MG-63, Osteosarcoma)?
A: The value was “MxA*”.

Q: What about the “TAP-1 gene expression change” value (MG-63, Osteosarcoma) of the same molecule?
A: Its value is “TAP-1*”.

Q: And the “IL-8 gene expression change” value (U-87MG, Astrocytoma)?
A: Its value is “IL-8*”.

Q: What about the “MCP-1 gene expression change” value (U-87MG, Astrocytoma) of the same molecule?
A: Its value is “MCP-1*”.

Q: What about the “Tenascin-c gene expression change” value (U-87MG, Astrocytoma) of the same molecule?
A: The value was “Tenascin-c*”.

B3: OPG: known protein used to treat the indicated cell lines in GeneCalling confirmation (protein, UniProt O00300 22-401, looked up)
Tumor necrosis factor …: ETFPPKYLHYDEETSHQLLCDKCPPGTYLKQHCTAKWKTVCAPCPDHYYTDSWHTSDECLYCSPVCKELQYVKQECNRTHNRVCECKEGRYLEIEFCLKHRSCPPGFGVVQAGTPERNTVCKRCPDGFFSNETSSKAPCRKHTNCSVFGLLLTQKGNATHDNICSGNSESTQKCGIDVTLCEEAFFRFAVPTKFTPNWLSVLVDNLPGTKVNAESVERIKRQHSSQEQTFQLLKLWKHQNKDQDIVKKIIQDIDLCENSVQRHIGHANLTFEQLRSLMESLPGKKVGAEDIEKTIKACKPSDQILKLLSLWRIKNGDQDTLKGLMHALKHSKTYHFPKTVTQSLKKTIRFLHSFTMYKLYQKLFLEMIGNQVQSVKISCL
Q: For B3, which “Collagen gene expression change” value (MG-63, Osteosarcoma) is on record?
A: The value was “Collagen**”.
